From article PMC10761769, “Allosteric control of dynamin-related protein 1 through a disordered C-terminal Short Linear Motif” (Nature Communications, 2024)
Where “and” joins values, the source holds several entries; their conditions need not be identical. Identical values can stand only once.

Tests used:
R403A Drp1 = R403A Drp1 (UniProt O00429); test: not stated; R403A Drp1 in solution (Supplementary Fig. 4a); the same protein was used as a dimer for SEC-SAXS at ~34 uM in buffer A with 1 mM DTT
[1] = biological target: the molecule itself; test: SEC-MALS; Drp1 in the nucleotide-free apo state, Superose 6 10/300 GL; injected at 5 uM, ~0.5 uM at peak detection; other injection concentrations in the supplement
[2] = biological target: the molecule itself; test: negative-stain EM; 2D class averages of single particles, Drp1 at 2 uM, apo state
[3] = biological target: human dynamin-related protein 1 (Drp1) isoform 3, wild type, N-terminal His6 tag (human) (UniProt O00429)
[4] = biological target: the molecule itself; test: SEC-MALS; full-length GIPC-1, unliganded, 10 uM at injection, Superdex 200 10/300 GL

Molecule | stoichiometry N [1] | stoichiometry N [2] | other results
R403A Drp1 (from UniProt O00429-4 1-699) (enzyme) | – | – | stoichiometry N (R403A Drp1): 2
human dynamin-related protein 1 (Drp1) isoform 3, wild type, N-terminal His6 tag (enzyme, UniProt O00429-4 1-699, looked up, dynamin-related protein 1 (Drp1), human, isoform 3, 699 residues, ends in the CT-SLiM R694-W699 (RETHLW); numbers count on: isoform 3 (699 residues); also called WT Drp1; WT) MEALIPVINKLQDVFNTVGADIIQLPQIVVVGTQSSGKSSVLESLVGRDLLPRGTGIVTRRPLILQLVHVSQEDKRKTTGEENGVEAEEWGKFLHTKNKLYTDFDEIRQEIENETERISGNNKGVSPEPIHLKIFSPNVVNLTLVDLPGMTKVPVGDQPKDIELQIRELILRFISNPNSIILAVTAANTDMATSEALKISREVDPDGRRTLAVITKLDLMDAGTDAMDVLMGRVIPVKLGIIGVVNRSQLDINNKKSVTDSIRDEYAFLQKKYPSLANRNGTKYLARTLNRLLMHHIRDCLPELKTRINVLAAQYQSLLNSYGEPVDDKSATLLQLITKFATEYCNTIEGTAKYIETSELCGGARICYIFHETFGRTLESVDPLGGLNTIDILTAIRNATGPRPALFVPEVSFELLVKRQIKRLEEPSLRCVELVHEEMQRIIQHCSNYSTQELLRFPKLHDAIVEVVTCLLRKRLPVTNEMVHNLVAIELAYINTKHPDFADACGLMNNNIEEQRRNRLARELPSAVSRDKVASGGGGVGDGVQEPTTGNWRGMLKTSKAEELLAEEKSKPIPIMPASPQKGHAVNLLDVPVPVARKLSAREQRDCEVIERLIKSYFLIVRKNIQDSVPKAVMHFLVNHVKDTLQSELVGQLYKSSLLDDLLTESEDMAQRRKEAADMLKALQGASQIIAEIRETHLW | 2 and 4 | – | –
human Drp1 isoform 3 ΔCT6 (last six residues, the whole CT-SLiM, removed) (enzyme, UniProt O00429-4 1-693, looked up, Drp1, human, isoform 3, without the last six residues (R694-W699) of the 699; numbers count on: isoform 3 (699 residues); Limits worked out from 'the last six residues removed' and W699 as the last residue; also called ΔCT6 Drp1; ΔCT6 variant) MEALIPVINKLQDVFNTVGADIIQLPQIVVVGTQSSGKSSVLESLVGRDLLPRGTGIVTRRPLILQLVHVSQEDKRKTTGEENGVEAEEWGKFLHTKNKLYTDFDEIRQEIENETERISGNNKGVSPEPIHLKIFSPNVVNLTLVDLPGMTKVPVGDQPKDIELQIRELILRFISNPNSIILAVTAANTDMATSEALKISREVDPDGRRTLAVITKLDLMDAGTDAMDVLMGRVIPVKLGIIGVVNRSQLDINNKKSVTDSIRDEYAFLQKKYPSLANRNGTKYLARTLNRLLMHHIRDCLPELKTRINVLAAQYQSLLNSYGEPVDDKSATLLQLITKFATEYCNTIEGTAKYIETSELCGGARICYIFHETFGRTLESVDPLGGLNTIDILTAIRNATGPRPALFVPEVSFELLVKRQIKRLEEPSLRCVELVHEEMQRIIQHCSNYSTQELLRFPKLHDAIVEVVTCLLRKRLPVTNEMVHNLVAIELAYINTKHPDFADACGLMNNNIEEQRRNRLARELPSAVSRDKVASGGGGVGDGVQEPTTGNWRGMLKTSKAEELLAEEKSKPIPIMPASPQKGHAVNLLDVPVPVARKLSAREQRDCEVIERLIKSYFLIVRKNIQDSVPKAVMHFLVNHVKDTLQSELVGQLYKSSLLDDLLTESEDMAQRRKEAADMLKALQGASQIIAEI | 4 | 2 | –
mouse GIPC-1 (GAIP interacting protein, C-terminus 1), full length (natural protein, UniProt Q9Z0G0 1-333, looked up, GIPC-1, mouse, full length; also called full-length GIPC-1; source: subcloned in pGEX-6P1, expressed and purified using standard protocols; GST removed by HRV3C; not shown: GST, N-terminal, cleaved) MPLGLGRRKKAPPLVENEEAEPSRSGLGVGEPGPLGGSAAGESQMGLPPPPAALRPRLVFHTQLAHGSPTGRIEGFTNVKELYGKIAEAFRLPAAEVMFCTLNTHKVDMDKLLGGQIGLEDFIFAHVKGQRKEVEVFKSEEALGLTITDNGAGYAFIKRIKEGSVIDHIQLISVGDMIEAINGQSLLGCRHYEVARLLKELPRGRTFTLKLTEPRKAFDMISQRSAGGHPGSGPQLGTGRGTLRLRSRGPATVEDLPSAFEEKAIEKVDDLLESYMGIRDTELAATMVELGKDKRNPDELAEALDERLGDFAFPDEFVFDVWGAIGDAKVGRY | – | – | fission of free-standing lipid nanotubes by WT Drp1 with GIPC-1 at 1:1 (0.5 uM each), 1 mM GTP [3]: > 30%; stoichiometry N [4]: 2
human Drp1 isoform 3 ΔCT4 (last four residues of the CT-SLiM removed) (enzyme, UniProt O00429-4 1-695, looked up, Drp1, human, isoform 3, without the last four residues (T696-W699) of the 699; numbers count on: isoform 3 (699 residues); Limits worked out from 'the last four residues removed' and W699 as the last residue; also called ΔCT4 Drp1; ΔCT4 variant) MEALIPVINKLQDVFNTVGADIIQLPQIVVVGTQSSGKSSVLESLVGRDLLPRGTGIVTRRPLILQLVHVSQEDKRKTTGEENGVEAEEWGKFLHTKNKLYTDFDEIRQEIENETERISGNNKGVSPEPIHLKIFSPNVVNLTLVDLPGMTKVPVGDQPKDIELQIRELILRFISNPNSIILAVTAANTDMATSEALKISREVDPDGRRTLAVITKLDLMDAGTDAMDVLMGRVIPVKLGIIGVVNRSQLDINNKKSVTDSIRDEYAFLQKKYPSLANRNGTKYLARTLNRLLMHHIRDCLPELKTRINVLAAQYQSLLNSYGEPVDDKSATLLQLITKFATEYCNTIEGTAKYIETSELCGGARICYIFHETFGRTLESVDPLGGLNTIDILTAIRNATGPRPALFVPEVSFELLVKRQIKRLEEPSLRCVELVHEEMQRIIQHCSNYSTQELLRFPKLHDAIVEVVTCLLRKRLPVTNEMVHNLVAIELAYINTKHPDFADACGLMNNNIEEQRRNRLARELPSAVSRDKVASGGGGVGDGVQEPTTGNWRGMLKTSKAEELLAEEKSKPIPIMPASPQKGHAVNLLDVPVPVARKLSAREQRDCEVIERLIKSYFLIVRKNIQDSVPKAVMHFLVNHVKDTLQSELVGQLYKSSLLDDLLTESEDMAQRRKEAADMLKALQGASQIIAEIRE | 4 | 2 | –
